# Experimental data published in patent US20220025021A1 (BETH ISRAEL DEACONESS MEDICAL CENTER, published 2022).
# Substitutions are numbered along the chain they refer to.
# B1: MS-68 (antibody)
# VH: not shown
# VL: DFVLTQSPHSLPVTPGESASISCKSSHSLIHGDRNNYLAWYVQKPGRSPQLLIYLASSRASGVPDRFSGSGSDKDFTLKISRVETEDVGTYYCMQGRESPWTFGQGTKVDIKRTVAAPSVFIFPPSDEQLKSGTASVVCLLNNFYPREAKVQWKVDNALQSGNSQESVTEQDSKDSTYSLSSTLTLSKADYEKHKVYACEVTHQGLSSPVTKSFNRGEC
# B2: MS-73 (antibody)
# VH: not shown
# VL: B1 VL with P12S, T85A
# B3: MS-71 (antibody)
# VH: not shown
# VL: B1 VL with P12S, D73G
# B4: MS-69 (antibody)
# VH: not shown
# VL: B1 VL with P12S, S18P
# B5: MS-70 (antibody, V domains shown)
# VH: QVQLVQSGPEVRKPGTSVKVSCKAPGNTLKTYDLHWVRSVPGQGLQWMGWISHEGDKKVIVERFKAKVTIDWDRSTNTAYLQLSGLTSGDTAVYYCAKGSKHRLRDYALYDDDGALNWAVDVDYLSNLEFWGQGTAVTVSS
# VL: DFVLTQSPHSLSVTPGESASISCKSSHSLIHGDRNNYLAWYVQKPGQSPQLLIYLASSRASGVPDRFSGSGSDKDFTLKISRVETEDVGTYYCMQGRESPWTFGQGTKVDIKR
# B6: MS-74 (antibody, V domains shown)
# VH: B5 VH
# VL: B5 VL with Q47R, T90V
# B7: MS-72 (antibody, V domains shown)
# VH: B5 VH
# VL: B5 VL with Q47R, K74T
# B8: MS-75 (antibody, V domains shown)
# VH: B5 VH with P25S
# VL: B5 VL with Q47R
# B9: MS-76 (antibody, V domains shown)
# VH: B5 VH with N27Y
# VL: B5 VL with Q47R
# Key:
# Test in all cases: cell-based or functional assay
# [1] = target: HIV-1 pseudovirus AC10.0.29 (HIV-1)
# [2] = target: HIV-1 pseudovirus X1193_c1 (HIV-1)
# [3] = target: HIV-1 pseudovirus Ce1176_A3 (HIV-1)
# [4] = target: HIV-1 pseudovirus 6952.v1.c20 (HIV-1)
# [5] = target: HIV-1 pseudovirus SC05.8C11.2344 (HIV-1)
# [6] = target: HIV-1 pseudovirus 263-8 (HIV-1)
Binder,IC50 (neutralization in TZM.bl cells) [1] [µg/mL],IC80 (neutralization in TZM.bl cells) [1] [µg/mL],IC50 (neutralization in TZM.bl cells) [2] [µg/mL],IC80 (neutralization in TZM.bl cells) [2] [µg/mL],IC50 (neutralization in TZM.bl cells) [3] [µg/mL],IC80 (neutralization in TZM.bl cells) [3] [µg/mL],IC50 (neutralization in TZM.bl cells) [4] [µg/mL],IC80 (neutralization in TZM.bl cells) [4] [µg/mL],IC50 (neutralization in TZM.bl cells) [5] [µg/mL],IC80 (neutralization in TZM.bl cells) [5] [µg/mL],IC50 (neutralization in TZM.bl cells) [6] [µg/mL],IC80 (neutralization in TZM.bl cells) [6] [µg/mL]
B1,0.04,0.169,0.1,0.287,0.096,1.64,0.206,12.9,0.708,1.95,0.011,0.038
B2,0.041,0.206,0.085,0.327,0.035,0.581,0.222,6.99,0.461,1.62,0.01,0.032
B3,0.035,0.177,0.072,0.265,0.04,0.796,0.325,7.92,0.425,1.41,0.014,0.041
B4,0.029,0.169,0.072,0.326,0.087,1.71,0.182,3.06,0.456,1.69,0.01,0.046
B5,0.053,0.206,0.111,0.413,0.06,0.968,0.285,4.84,0.508,1.36,0.016,0.047
B6,0.041,0.216,0.086,0.296,0.028,0.564,0.285,15.1,0.415,1.94,0.013,0.037
B7,0.051,0.255,0.072,0.258,0.074,1.3,0.643,12.4,0.791,2.85,0.02,0.057
B8,0.055,0.442,0.174,0.591,0.139,2.79,0.977,> 25,0.792,3.72,0.018,0.086
B9,0.047,0.368,0.126,0.575,0.082,1.63,0.844,> 25,0.587,2.57,0.015,0.053
